Assay results published in paper PMC7793301, “Assembly of infectious enteroviruses depends on multiple, conserved genomic RNA-coat protein contacts” (PLoS Pathogens, 2020).

B1: EV-E capsid protein VP2 (natural protein)
chain: SPSAEACGYSDRVAQLTLGNSTITTQEAANICVAYGCWPAKLSDTDATSVDKPTEPGVSADAFYTLRSKPWQADSKGWYWKLPDALNNTGMFGQNAQFHYIYRGGWAVHVQCNATKFHQGTLLVLAIPEHQIATQEQPAFDRTMPGSEGGTFQEPFWLEDGTSLGNSLIYPHQWINLRTNNSATLILPYVNAIPMDSAIRHSNWTLAIIPVAPLKYAAETTPLVPITVTIAPMETEYNGLRRAIASNQ
notes: VP2, cut product of VP0 of the enterovirus-E polyprotein; genome NC_001859; modelled from residue Y9; numbers count on: the mature VP2; source: EV-E propagated in BHK cells; virions purified (sucrose cushion, sucrose gradient)

Legend:
[1] = target: T1, EV-E capsid protein VP1 (enterovirus-E (EV-E), UniProt P12915 560-840); experiment: cryo-EM structure; purified EV-E virions in PBS; single particle analysis with icosahedral symmetry, ~2.2 Å; also symmetry expansion and focused classification; conditions: both partners purified
T1 construct: VP1, cut product of the enterovirus-E (formerly bovine enterovirus) polyprotein; genome NC_001859; numbers count on: the mature VP1; The N-terminal arm is not fully built in the model; source: EV-E propagated in BHK cells; virions purified (sucrose cushion, sucrose gradient)
T1 sequence: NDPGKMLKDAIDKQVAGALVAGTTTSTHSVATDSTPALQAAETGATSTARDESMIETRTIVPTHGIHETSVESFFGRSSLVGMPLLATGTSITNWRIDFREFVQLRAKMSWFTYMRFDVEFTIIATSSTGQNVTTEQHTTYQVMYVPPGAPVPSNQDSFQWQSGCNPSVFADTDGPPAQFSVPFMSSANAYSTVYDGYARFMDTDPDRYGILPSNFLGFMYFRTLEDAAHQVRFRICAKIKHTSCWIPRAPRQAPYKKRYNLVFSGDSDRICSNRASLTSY

[2] = target: B1; experiment: as above; conditions: both partners purified

B1
binding result [1]: binds

B2: EV-E capsid protein VP3 (natural protein)
chain: GLPTKPGPGSYQFMTTDEDCSPCILPDFQPTLEIFIPGKVNNLLEIAQVESILEANNREGVEGVERYVIPVSVQDALDAQIYALRLELGGSGPLSSSLLGTLAKHYTQWSGSVEITCMFTGTFMTTGKVLLAYTPPGGDMPRNREEAMLGTHVVWDFGLQSSITLVIPWISASHFRGVSNDDVLNYQYYAAGHVTIWYQTNMVIPPGFPNTAGIIMMIAAQPNFSFRIQKDREDMTQTAILQ
notes: VP3, cut product of the enterovirus-E polyprotein; genome NC_001859; numbers count on: the mature VP3; source: EV-E propagated in BHK cells; virions purified (sucrose cushion, sucrose gradient)
binding result [1]: binds | binding result [2]: binds
